B1: Puc peptide (residues 91-106), unlabeled (peptide)
peptide: ENLACDEVTSTTSSST
notes: puckered protein (Puc), residues 91-106; also called dark Puc peptide; unlabeled Puc peptide; source: synthetic peptide (Tufts University Core Facility, HPLC purified)
B2: Pdx1-C (C-terminal intrinsically disordered region of human Pdx1) (domain or fragment)
chain: GPGWEDKKRGGGTAVGGGGVAEPEQDCAVTSGEELLALPPPPPPGGAVPPAAPVAAREGRLPPGLSASPQPSSVAPRRPQEPR
notes: N-terminal Gly-Pro-Gly cloning artefact left after 3C protease; pancreatic and duodenal homeobox 1 (Pdx1), human, amino acids 205-283 by the methods; the exogenous tryptophan may be what is counted as residue 204 (surmise); also called 13C,15N-Pdx1-C; source: E. coli BL-21(DE3), purified (Ni-NTA, 3C protease, second Ni-NTA, heat, anion exchange flow-through); not shown: GST, N-terminal, cleaved; …
B3: Pdx1-C (C-terminal intrinsically disordered region of human Pdx1) (domain or fragment)
chain: GPGWEDKKRGGGTAVGGGGVAEPEQDCAVTSGEELLALPPPPPPGGAVPPAAPVAAREGRLPPGLSASPQPSSVAPRRPQEPR
notes: N-terminal Gly–Pro–Gly cloning artifact left after 3C protease; pancreatic and duodenal homeobox 1 (Pdx1), human, amino acids 205-283 (methods); The results' 204–283 may count the added tryptophan as position 204; 13C,15N enriched for NMR; also called ^13C, ^15N-Pdx1-C; Pdx1 C terminus; source: E. coli BL-21(DE3), purified (Ni-NTA, 3C protease, second Ni-NTA, heat, anion exchange flow-through); …
B4: Pdx1–SBM1f peptide (Pdx1 residues 224–234) (peptide)
peptide: EQDCAVTSGEE
notes: human Pdx1 residues 224-234, shorter SBM1 peptide used for fluorescence anisotropy; source: synthetic peptide (Tufts University Core Facility, HPLC purified)
B5: Pdx1-C: recombinant human Pdx1 C-terminal intrinsically disordered region (residues 204–283) (protein)
chain: GPGWEDKKRGGGTAVGGGGVAEPEQDCAVTSGEELLALPPPPPPGGAVPPAAPVAAREGRLPPGLSASPQPSSVAPRRPQEPR
modifications: left off: GST, N-terminal, cleaved | His6, N-terminal, cleaved

Experiments:
[1] = molecular target: T1, SPOP-MATH (human SPOP residues 28-166) (human, UniProt O43791 28-166); assay: fluorescence polarisation; competition fluorescence anisotropy: competitor (~0.01 μM to ~2 mM) displaces 40 nM f-Puc from 6 μM SPOP-MATH or SPOP28-359; complete competitive binding fit; 50 mM sodium phosphate pH 6.5, 50 mM NaCl, 5 mM DTT, 1% BSA, 0.01% Triton X-100; conditions: both partners purified
T1 construct: N-terminal Gly-Pro-Gly cloning artefact left after 3C protease; speckle-type POZ protein (SPOP), human, MATH domain, residues 28-166; uniformly 15N-labelled for the NMR experiments; also called 15N-SPOP-MATH; source: E. coli BL-21(DE3), purified (Ni-NTA, 3C protease, second Ni-NTA, Sephacryl S100); not shown: GST, N-terminal, cleaved; His6, N-terminal, cleaved

[2] = molecular target: T2, SPOP28-359 (human SPOP residues 28-359) (human, UniProt O43791 28-359); assay: as above; conditions: both partners purified
T2 construct: also called oligomeric SPOP; source: E. coli Rosetta BL-21(DE3), purified (Ni-NTA, TEV protease, second Ni-NTA, Superdex 200); not shown: His, N-terminal, cleaved; SUMO, N-terminal, cleaved

[3] = molecular target: T3, SPOP_(28–359) (human SPOP residues 28–359) (human, UniProt O43791 28-359); assay: fluorescence polarisation; competition fluorescence anisotropy: competitor against 40 nM f-Puc and 6 μM SPOP_(28–359); 50 mM sodium phosphate pH 6.5, 50 mM NaCl, 5 mM DTT, 1% BSA, 0.01% Triton X-100; complete competitive binding fit; conditions: both partners purified
T3 construct: also called His–SUMO–SPOP (before cleavage); source: E. coli Rosetta BL-21(DE3), purified (Ni-NTA, TEV protease, second Ni-NTA, Superdex 200); not shown: His, N-terminal, cleaved; SUMO, N-terminal, cleaved

[4] = molecular target: T4, SPOP–MATH (human SPOP residues 28–166) (human, UniProt O43791 28-166); assay: fluorescence polarisation; competition fluorescence anisotropy: competitor ~0.01 μM to ~2 mM against 40 nM f-Puc and 6 μM SPOP–MATH; 50 mM sodium phosphate pH 6.5, 50 mM NaCl, 5 mM DTT, 1% BSA, 0.01% Triton X-100; complete competitive binding fit; conditions: both partners purified
T4 construct: N-terminal Gly–Pro–Gly cloning artifact left after 3C protease; speckle-type POZ protein (SPOP), human, MATH domain, residues 28-166; Uniformly 15N (or 13C,15N) enriched for the NMR experiments in which it is the observed protein; also called monomeric SPOP–MATH; ^15N–SPOP–MATH; source: E. coli BL-21(DE3), purified (Ni-NTA, 3C protease, second Ni-NTA, Sephacryl S100 gel filtration); not shown: …

[5] = molecular target: T5, SPOP–MATH (residues 28–166) (Homo sapiens, UniProt O43791); assay: Competition fluorescence anisotropy, displacement of f-Puc from SPOP–MATH; format: binding; conditions: competition FA; Fig. 5 and Table S4
T5 construct: glutathione S-transferase (GST) (N, cleaved yes); 6X His (N, cleaved yes); made in house; host or cells: E. coli BL-21(DE3)
Description: An Escherichia coli codon-optimized DNA sequence encoding amino acids 205 to 283 of the human Pdx1 sequence (Pdx1-C) in the multiple cloning site of pET49b(+) was purchased from GeneArt (Thermo Fisher). The pET49b(+) backbone encodes for N-terminal glutathione S-transferase and 6X His tags, followed by a 3C protease recognition motif. In all experiments described herein, a mutant containing an exogenous tryptophan at the N terminus of the human Pdx1-C sequence was used for the purposes of quantitation. Mutations in Pdx1-C were generated by Q5 site-directed mutagenesis (New England Biolabs) with primers designed on NEBbasechanger.com according to the manufacturer protocol. Similarly, an E. coli–optimized DNA sequence encoding residues 28 to 166 of human SPOP (SPOP–MATH) was purchased in pET49b(+) from GeneArt. […] A plasmid encoding His–SUMO–SPOP human residues 28 to 359 harboring a tobacco etch virus protease recognition site directly N terminal to the beginning of the native SPOP protein sequence was generated previously ([21]).
All FA experiments were conducted in 50 mM sodium phosphate, pH 6.5, 50 mM sodium chloride, 5 mM DTT, 1% BSA, and 0.01% Triton X-100. In all experiments, the source of fluorescence signal was f-Puc purchased from GenScript, at a final concentration of 40 nM. For direct FA measurements, SPOP–MATH or SPOP28–359 of concentrations between 0.001 and 300 μM was added to wells of 96- or 384-well plates containing f-Puc and buffer. For competition-mode experiments, serial dilutions of each competitor (Pdx1 peptide or recombinant protein) were prepared ranging from ∼0.01 μM to ∼2 mM (concentration range varied based on peptide solubility) in wells of 96- or 384-well plates containing 40 nM f-Puc and 6 μM SPOP–MATH or SPOP28–359. The fluorescence polarization of each well was measured (from which FA was calculated) using either a TECAN Infinite M1000 Pro or BioTek Synergy 4 fluorometer. All experiments were performed with at least three technical replicates. FA data points were fit to a complete competitive binding model ([23]) to determine dissociation constants using in-house Python scripts (see Quantification and statistical analysis).
All titrations were performed in triplicate for rigor. Direct FA titrations were performed to determine the dissociation constants of the fluorescent probe toward SPOP constructs. Direct titration data were fit according to equation 6 in ([54]). Competition mode titration data were fit according to the fitting function in ([23]). Average dissociation constants and standard error from the mean for all constructs from competition experiments may be found in Table S4. The python scripts used in plotting and fitting may be found at https://github.com/idpemery/spop-pdx1.

[6] = molecular target: T5, SPOP–MATH (residues 28–166); assay: (HACA)CON NMR of 13C,15N–Pdx1-C with SPOP–MATH; format: binding; conditions: 13C direct-detect (HACA)CON, 500 MHz, 25 °C, pH 6.5
Procedure: NMR data collection and analysis
NMR data were collected on Bruker Avance III 500, 600, or 850 MHz spectrometers equipped with TCI triple-resonance cryoprobes. All data collection and initial processing were carried out in TopSpin (Bruker). NMR experiments on all proteins were collected in 50 mM sodium phosphate, pH 6.5, 50 mM sodium chloride, 5 mM DTT, 0.01% sodium azide, and 5% D2O unless otherwise noted.
Addition of SPOP–MATH into ^13C, ^15N–Pdx1-C was monitored by ^13C direct-detect (HACA)CON experiments ([44]) consisting of 16 scans and 1024 × 128 complex data points. SPOP–MATH was added to ^13C, ^15N–Pdx1-C such that the final concentrations were 0.35 mM and 0.37 mM, respectively. Peaks from each spectrum were integrated and used to calculate a percent intensity change in Pdx1-C resonances after binding of SPOP–MATH. SPOP28–359 was added to ^13C, ^15N–Pdx1-C at a 4-fold molar excess and detected by HSQC or (HACA)CON. Line broadening precluded residue-specific analysis of SPOP28–359 and Pdx1-C.

T5 sequence (O43791 28-166): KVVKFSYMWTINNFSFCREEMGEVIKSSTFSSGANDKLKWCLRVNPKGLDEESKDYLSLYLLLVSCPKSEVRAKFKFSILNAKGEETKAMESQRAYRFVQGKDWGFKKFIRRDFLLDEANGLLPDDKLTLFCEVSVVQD
T2 sequence (O43791 28-359): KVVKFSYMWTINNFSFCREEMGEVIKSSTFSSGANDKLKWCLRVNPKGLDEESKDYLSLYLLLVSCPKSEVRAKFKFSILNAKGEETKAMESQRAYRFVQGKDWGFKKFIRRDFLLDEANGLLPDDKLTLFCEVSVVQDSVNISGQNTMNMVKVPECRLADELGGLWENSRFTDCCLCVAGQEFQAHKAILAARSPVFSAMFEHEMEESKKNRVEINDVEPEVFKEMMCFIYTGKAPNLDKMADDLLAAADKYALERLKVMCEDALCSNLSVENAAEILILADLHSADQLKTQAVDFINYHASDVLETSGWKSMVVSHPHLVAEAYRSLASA
T1 sequence (O43791 other isoform, or with tags, fused parts or gaps): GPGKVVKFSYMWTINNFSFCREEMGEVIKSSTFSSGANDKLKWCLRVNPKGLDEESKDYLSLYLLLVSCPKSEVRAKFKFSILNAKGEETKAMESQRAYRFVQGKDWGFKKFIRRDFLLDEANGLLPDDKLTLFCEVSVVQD
T3 sequence (O43791 28-359): as the sequence (O43791 28-359) above
T4 sequence (O43791 other isoform, or with tags, fused parts or gaps): as the sequence (O43791 other isoform, or with tags, fused parts or gaps) above

Molecule	Kd [1]	Kd [2]	further results
B1	2.6 µM	2.6 µM	–
B2	32 µM	3.5 µM	–
B3	–	–	fold enhancement in binding affinity compared with SPOP–MATH [3]: ~10 fold
B4	–	–	Kd [4]: 140 µM
B5	–	–	apparent affinity for SPOP–MATH, in words [5]: higher apparent affinity for SPOP–MATH than the strongest individual SB motif alone; resonance intensity loss in Pdx1-C on addition of SPOP-MATH [6]: marked resonance intensity loss in two specific locations: amino acids 220 to 235 (highlighted in teal) and amino acids 265 to 275
